Patent US20210180062

## SynGAP α2 (isoform construct co-transfected in the small GTPase assay)
Ras
  GAP activity (reduction of GTP-bound small G protein, pull-down with effector-domain beads): SynGAP α1 and α2 has mild preference towards Ras rather than Rap

## SynGAP β (isoform construct co-transfected in the small GTPase assay)
Ras
  GAP activity (reduction of GTP-bound small G protein, pull-down with effector-domain beads): SynGAP β generally has highest GAP activity into all small G proteins among other isoforms
Rac1
  GAP activity (reduction of GTP-bound small G protein, pull-down with effector-domain beads): SynGAP β generally has highest GAP activity into all small G proteins among other isoforms

## SynGAP γ (isoform construct co-transfected in the small GTPase assay)
Rap1
  GAP activity (reduction of GTP-bound small G protein, pull-down with effector-domain beads): SynGAP β and γ has mild preference towards Rap1

## SynGAP α1 (isoform construct co-transfected in the small GTPase assay)
Ras
  GAP activity (reduction of GTP-bound small G protein, pull-down with effector-domain beads): SynGAP α1 and α2 has mild preference towards Ras rather than Rap
